In US20230248844A1, “C[…] ADC OR AN AOC COMPRISING A VHH, AND A SAPONIN OR A LIGAND-SAPONIN CONJUGATE” (SAPREME TECHNOLOGIES B.V., priority 2020, published 2023) one finds cell killing (MTS) IC50, titrated alone, MDA-MB-468 cells (EGFR++) data, which are given here for 1 substance.

In the test the target is EGFR (human) (UniProt P00533). Briefly: cell-based or functional assay.

On to cetuximab-saporin (antibody), for which the cell killing (MTS) IC50, titrated alone, MDA-MB-468 cells (EGFR++) amounted to 300 pM.
